# Experimental data reported in patent US20120165244A1, “METHODS FOR BINDING LEWIS Y ANTIGEN” (priority 2008, published 2012).
# What was measured:
# [1] = Clearance of LPS in circulation (Limulus amebocyte lysate test); type: in vivo; details: LPS 20 mg/kg i.p.; rTMD1 10 mg/kg i.v.
# Experimental: (§1) Male FVB mice (8-10 weeks old) were used to model sepsis in vivo. The Institutional Animal Care and Use Committee of the National Cheng Kung University approved procedures. In the chronic endotoxemia model, various concentrations of rTMD1 or rTMD proteins in equi-molar amounts were administrated by tail intravenous (i.v.) injection and LPS (20 mg/kg) or K. pneumoniae (5×10^2 CFU/mouse, BCRC) was administrated by intraperitoneal (i.p.) injection. After 6 or 12 hours, mice were sacrificed by pentobarbital anesthesia (50 mg/kg; i.p.). […] The half-life of rTMD1 in the circulation was determined by i.v. injection of rTMD1 (10 mg/kg, equals 436.64 nmole/kg) and serum samples were collected at various time intervals. The levels of rTMD1 in the collected sera were determined by a sandwich ELISA which employed anti-c-Myc monoclonal antibody and TM-H300 as capture and detection antibodies (both from Santa Cruz Biotechnology), respectively. […] Mortality was monitored every 6-12 hours until all mice in either experimental group died. […] Serum samples were collected at various time intervals and the amount of LPS was determined by Limulus amebocyte lysate test (Associates of Cape Cod, E. Falmouth, Mass.). […] Outgrowth of K. pneumoniae was quantified by plating serial dilutions of blood samples on blood agar plates and enumerating colonies after overnight incubation at 37° C.
# [2] = tested on: K. pneumoniae; experiment: K. pneumoniae clearance in circulation (viable CFU counts in blood); type: in vivo, male FVB mice
# Experimental: as §1
# [3] = tested on: THP-1 cells; experiment: THP-1 phagocytosis assay with FITC-labeled K. pneumoniae; type: cell-based, Human; details: activated THP-1 cells
# Experimental: Human leukemia monocytic THP-1 cells and murine macrophage cell line RAW 264.7 were obtained from the American Type Culture Collection. THP-1 cells were grown in suspension in RPMI-1640 supplemented with 10 mM HEPES, 1 mM sodium pyruvate, 0.1% β-mercaptoethanol, 100 U/ml penicillin, 100 µg/ml streptomycin, and 10% fetal bovine serum (FBS). RAW 264.7 cells were grown as an adhered layer in Dulbecco's modified Eagle's medium with 4 mM L-glutamine adjusted to contain 1.5 g/l sodium bicarbonate and 4.5 g/l glucose, 100 U/ml penicillin, […] streptomycin, and 10% FBS under a humidified 5% CO2 atmosphere at 37° C. For differentiation, THP-1 cells were plated in medium containing 10 nM PMA and allowed to adhere for 18 h.
# FITC-labeled K. pneumoniae (1×10^5 CFU/well) were pre-incubated with rTMD1 at 37° C. for 30 minutes before adding to differentiated THP-1 cells. After incubation for 2 hours the THP-1 cells were washed twice with ice-cold PBS prior to fluorescence microscopy, or were further trypsinized, resuspended in PBS, and analyzed in a fluorescence-activated cell sorter (FACS; Becton Dickinson, San Jose, Calif.) to measure THP-1 cell intracellular fluorescence. Green fluorescence data from 10,000 events (cells) per condition collected at 530 nm on a log scale were analyzed with CellQuest™ software (Becton Dickinson).
# [4] = tested on: K. pneumoniae; experiment: K. pneumoniae (5×10^2 CFU/mouse) systemic sepsis model in mice; type: in vivo, Male FVB mice
# Experimental: TNF-α in conditioned medium or mouse serum was measured by an enzyme-linked immunosorbent assay (ELISA) (R&D Systems, Minneapolis, Minn.). Accumulation of nitrite in the medium or mouse serum was determined by a colorimetric assay using Griess reagent (Sigma-Aldrich). Blood urea nitrogen (BUN) and creatinine were measured with a Roche D&P modular (Roche Diagnostic Systems, Branchburg, N.J.). Assays were performed according to the manufacturer's protocol.
# Male FVB mice (8-10 weeks old) were used to model sepsis in vivo. The Institutional Animal Care and Use Committee of the National Cheng Kung University approved procedures. In the chronic endotoxemia model, various concentrations of rTMD1 or rTMD proteins in equi-molar amounts were administrated by tail intravenous (i.v.) injection and LPS (20 mg/kg) or K. pneumoniae (5×10^2 CFU/mouse, BCRC) was administrated by intraperitoneal (i.p.) injection. After 6 or 12 hours, mice were sacrificed by pentobarbital anesthesia (50 mg/kg; i.p.). Sera were collected and assayed for TNF-α, NO, BUN, and creatinine, and lung and kidney tissues were removed, fixed with formalin, and embedded in paraffin for histochemical examination. In the lethal sepsis model, rTMD1 (2 mg/kg, equals 87.3 nmole/kg) was i.v.-administrated at 0, 6, 12, and 24 hours after i.p. administration of LPS (40 mg/kg). The half-life of rTMD1 in the circulation was determined by i.v. injection of rTMD1 (10 mg/kg, equals 436.64 nmole/kg) and serum samples were collected at various time intervals. The levels of rTMD1 in the collected sera were determined by a sandwich ELISA which employed anti-c-Myc monoclonal antibody and TM-H300 as capture and detection antibodies (both from Santa Cruz Biotechnology), respectively. […] Mortality was monitored every 6-12 hours until all mice in either experimental group died. Experimental procedure of determining LPS half-life is as following. LPS (20 mg/kg) was i.p.-administrated to male FVB mice without or with rTMD1 (10 mg/kg; i.v.). Serum samples were collected at various time intervals and the amount of LPS was determined by Limulus amebocyte lysate test (Associates of Cape Cod, E. Falmouth, Mass.). A further experiment was performed to determine whether rTMD1 affects bacterial clearance. K. pneumoniae (5×10^2 CFU/mouse) was i.p.-administrated to male FVB mice without or with rTMD1 (10 mg/kg; i.v.), and blood samples were collected at various time intervals. Outgrowth of K. pneumoniae was quantified by plating serial dilutions of blood samples on blood agar plates and enumerating colonies after overnight incubation at 37° C.
# [5] = Half-life of rTMD1 in the circulation (sandwich ELISA); type: in vivo, Male FVB mice; details: mice
# Experimental: as §1
# [6] = rTMD1 5-25 mg/kg i.v., 12 hours, 5×10^2 CFU
molecule,measurement,setting,value
"rTMD1: recombinant human thrombomodulin N-terminal lectin-like domain (residues Ala1-Ala155) with 6×His tag and c-Myc epitope, Pichia pastoris expressed (protein, left off: small tags and cut ends) EFAPAEPQPGGSQCVEHDCFALYPGPATFLNASQICDGLRGHLMTVRSSVAADVISLLLNGDGGVGRRRLWIGLQLPPGCGDPKRLGPLRGFQWVTGDNNTSYSRWARLDLNGAPLCGPLCVAVSAAEATVPSEPIWEEQQCEVKADGFLCEFHFPAYLEDDDDKIEQKLISEEDLNSAVDHHHHHH",LPS clearance,[1],significantly enhanced
same,"K. pneumoniae clearance in circulation, post-treatment","[2]; 12, 24, 36 hours after infection, rTMD1 given up to 30 or 60 minutes after infection",enhance
same,K. pneumoniae clearance in circulation,"[2]; 12, 24, and 36 hours after injection, rTMD1 10 mg/kg i.v., 5×10^2 CFU",significantly enhanced
same,bacterial phagocytosis by THP-1 cells,[3],markedly increased
same,"survival, post-treatment",[4]; all rTMD1-treated groups vs infected mice without rTMD1,improved
same,"K. pneumoniae-induced TNF-α release, post-treatment","[4]; rTMD1 10 mg/kg i.v. immediately, 30 or 60 minutes after K. pneumoniae",effectively suppress
same,NO production in K. pneumoniae-infected mice,[4]; [6],effectively reduced
same,TNF-α production in K. pneumoniae-infected mice,[4]; [6],effectively reduced
same,time detectable after each i.v. injection,[5]; i.v.,≤ 12 h
same,half-life in circulation,[5]; i.v. 10 mg/kg,3 to 4 h
